These results are taken from paper PMC2721907 (Nature structural & molecular biology, 2009).

B1: PLHSpTA, N-terminally acetylated (peptide)
peptide: Ac-PLHS[pT]A
B2: LHSpTAI, N-terminally acetylated (peptide)
peptide: Ac-LHS[pT]AI
B3: HSpTA, N-terminally acetylated (peptide)
peptide: Ac-HS[pT]A
B4: LHSpT, N-terminally acetylated (peptide)
peptide: Ac-LHS[pT]

Square brackets hold non-standard residues; d marks the D form. Ends that are not written are not given here. F2Pmab = 2-amino-4,4-difluoro-3-methyl-4-phosphobutanoic acid (p-Thr mimetic); pT = C[C@@H](OP(=O)(O)O)[C@H](N)C(=O)O

Plk2 PBD (purified recombinant), sequence (Q9NYY3 whole entry): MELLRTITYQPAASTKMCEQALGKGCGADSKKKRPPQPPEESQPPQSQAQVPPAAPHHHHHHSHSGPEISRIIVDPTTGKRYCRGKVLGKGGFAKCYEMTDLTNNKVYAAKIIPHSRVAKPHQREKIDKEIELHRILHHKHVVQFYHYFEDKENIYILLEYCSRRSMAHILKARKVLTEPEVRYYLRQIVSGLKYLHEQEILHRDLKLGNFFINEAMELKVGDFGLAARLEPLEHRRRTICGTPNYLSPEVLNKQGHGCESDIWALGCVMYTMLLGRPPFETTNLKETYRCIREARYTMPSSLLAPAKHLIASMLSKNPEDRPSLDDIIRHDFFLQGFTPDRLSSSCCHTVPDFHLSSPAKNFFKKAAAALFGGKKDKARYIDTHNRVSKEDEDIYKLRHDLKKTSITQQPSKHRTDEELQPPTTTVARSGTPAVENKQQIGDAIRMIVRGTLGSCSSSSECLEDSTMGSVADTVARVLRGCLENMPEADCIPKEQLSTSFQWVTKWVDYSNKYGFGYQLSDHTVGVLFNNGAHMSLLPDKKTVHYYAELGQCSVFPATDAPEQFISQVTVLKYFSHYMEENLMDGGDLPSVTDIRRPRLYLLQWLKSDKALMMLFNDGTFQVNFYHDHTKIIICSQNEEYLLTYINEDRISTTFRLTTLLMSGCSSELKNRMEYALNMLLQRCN

One assay deals with Plk1 (Homo sapiens, UniProt P53350). Kind of assay: Peptide pull-down of Plk1 from HeLa lysates with bead-immobilized peptides.
Plk1, sequence (P53350 367-603 limits assumed): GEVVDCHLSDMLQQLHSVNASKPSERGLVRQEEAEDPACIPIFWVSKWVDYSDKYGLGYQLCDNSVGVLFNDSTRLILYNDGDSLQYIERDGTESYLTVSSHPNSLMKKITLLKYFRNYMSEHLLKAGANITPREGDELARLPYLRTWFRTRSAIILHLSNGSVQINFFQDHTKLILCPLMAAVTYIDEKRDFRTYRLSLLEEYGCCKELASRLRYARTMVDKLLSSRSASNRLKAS
On to “PLHS-F2Pmab-A: 6-mer p-T78 mimetic peptide containing 2-amino-4,4-difluoro-3-methyl-4-phosphobutanoic acid (F2Pmab) (PLHS[F2Pmab]A-NH2)”, for which the “Plk1 binding in peptide pull-down (in words)” value is “precipitated Plk1”. Take PLHA-Pmab (PLHAT): the “Plk1 binding in peptide pull-down (in words)” value is “abolished the Plk1 binding”.

The next assay has as its target Plk2 PBD (purified recombinant). Put plainly: ITC.
As for “PLQSpT, N-terminally acetylated (peptide)”, the calorimetric initial heat of interaction was -1.1 kcal/mol.

On to “MQSpTPL, N-terminally acetylated (peptide)”, for which the calorimetric initial heat of interaction is -1.68 kcal/mol.

The next assay concerns the target Plk1 PBD (purified recombinant) (human). Put plainly: ITC. (In general: In ITC the heat of successive injections is recorded.)
Consider “MQSpTPL, N-terminally acetylated (peptide)”, for which the dH is -10 kcal/mol.

As for “LHSpTA, N-terminally acetylated (peptide)”, the dH was -9.9 kcal/mol.

A word on the Kd: it is the equilibrium constant for the complex coming apart. Take Ac-PLHSpT (peptide): the Kd is 445 nM. Take B1: the Kd came out at 262 nM and the dH was -11.6 kcal/mol. The corresponding values for B2 are 247 nM and -11.3 kcal/mol. With B3, the Kd amounted to 19500 nM and the dH was -3.82 kcal/mol.

For B4, the Kd was determined as 22100 nM and the dH was -6.29 kcal/mol.
